Source: PMC6123711, “Conformational signatures in β-arrestin2 reveal natural biased agonism at a G-protein-coupled receptor” (Communications Biology, 2018)

B1: Spexin (peptide, UniProt Q9BT56 27-116, looked up)
Spexin: APQRLLERRNWTPQAMLYLKGAQGRRFISDQSRRKDLSDRPLPERRSPNPQLLTIPEAATILLASLQKSPEDEEKNFDQTRFLEDSLLNW
modifications: Spexin
notes: endogenous peptide ligand of Galr2 and Galr3; synthesized by AnyGen

Experiments:
mice = conditions: cited from earlier work
Excerpt: (§1) G-protein-coupled receptors (GPCRs) are the largest family of cell surface receptors that communicate extracellular stimuli to the cell interior[1]. Biased ligands are of particular interest because they offer the possibility to design a novel class of therapeutic agents. In some GPCRs, biased ligands that preferentially activate G-protein-dependent signaling have therapeutic potential. […] Most descriptions of biased ag ...

[1] = target: T1, Galr2–β-arrestin2 complex (Homo sapiens, UniProt O43603); test: Reversal assay for dissociation kinetics; format: cell-based
T1 construct: expressed in transfected cells; host or cells: HEK293 cells, transient transfection with Lipofectamine 2000; b62 only says 'the cells'
T1 sequence (O43603 whole entry): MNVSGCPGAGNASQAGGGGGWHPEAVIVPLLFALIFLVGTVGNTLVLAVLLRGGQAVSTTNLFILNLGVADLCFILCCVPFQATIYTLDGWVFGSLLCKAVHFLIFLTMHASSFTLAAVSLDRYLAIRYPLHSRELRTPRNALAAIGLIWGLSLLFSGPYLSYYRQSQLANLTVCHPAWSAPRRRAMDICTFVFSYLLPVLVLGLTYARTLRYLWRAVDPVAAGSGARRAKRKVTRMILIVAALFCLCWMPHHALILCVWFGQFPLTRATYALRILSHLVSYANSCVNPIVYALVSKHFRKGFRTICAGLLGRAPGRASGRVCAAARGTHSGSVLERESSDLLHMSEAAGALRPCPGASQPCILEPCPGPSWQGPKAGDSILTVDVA
T1 sequence (P32121 whole entry partner): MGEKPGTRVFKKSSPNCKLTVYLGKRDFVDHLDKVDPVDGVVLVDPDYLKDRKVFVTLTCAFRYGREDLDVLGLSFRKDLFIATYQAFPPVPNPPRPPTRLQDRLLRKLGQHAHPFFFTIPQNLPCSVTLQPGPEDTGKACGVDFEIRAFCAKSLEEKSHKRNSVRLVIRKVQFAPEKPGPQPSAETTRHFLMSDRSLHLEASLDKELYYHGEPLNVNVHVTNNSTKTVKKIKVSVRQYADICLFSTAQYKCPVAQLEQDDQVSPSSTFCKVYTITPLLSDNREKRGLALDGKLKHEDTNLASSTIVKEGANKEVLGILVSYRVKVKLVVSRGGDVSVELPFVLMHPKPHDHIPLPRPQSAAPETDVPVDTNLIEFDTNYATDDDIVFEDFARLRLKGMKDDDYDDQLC
Description: The decay of the luminescent signal may reflect dissociation rate of ligand from Galr2 as the β-arrestin2 response returns to basal levels in washout experiments.
Ligand removal was performed by simply changing the medium containing no ligand and then immediately continue measuring luminescence. Samples with no ligand removal were used as a control. […] The results are expressed as the mean ± s.e.m. values of two independent experiments
One day before transfection, the cells were seeded in 96-well plates at a density of 2.5 × 10^4 cells per well. […] At 24 h post transfection, the medium was aspirated and replaced with 100 μl OPTIMEM and incubated at room temperature. After a 10-min incubation, 25 μl substrate (furimazine) was added, and once every minute subsequent luminescence measurements were taken for 10 min for signal stabilization. A total of 10 μl ligand was then added to each well and luminescence measurements were recorded immediately and once every minute during 10 min for signal stabilization. After that time wells allocated for ligand removal, ligand containing medium was replaced for medium containing only furimazine substrate and no ligand. Immediately continued recording the time course luminescence values once every minute during 1 h.

[2] = test system: diet-induced obese rodents; conditions: cited from earlier work
Excerpt: as §1

[3] = test system: galanin receptor 1 (Galr1); conditions: cited from earlier work
Excerpt: as §1

goldfish = conditions: cited from earlier work
Excerpt: as §1

[4] = test system: luteinizing hormone (LH) secretion; conditions: cited from earlier work
Excerpt: as §1

Molecule | food intake (mice) | decrease in luminescence signal after ligand removal ([1]; 10 μM agonist, medium change, two independent experiments) | half-life (t1/2) of Galr2–β-arrestin2 complex luminescence decay after ligand removal ([1]; HEK293 cells, 10 μM agonist, washout, indirect measure of ligand dissociation, mean ± s.e.m. of two independent experiments) [min] | residence time relative to Galanin ([1]; reversal dissociation assay) | body weight [2] | activation of Galr1 [3] | appetite (goldfish) | LH secretion, goldfish [4]
Galanin [reference compound] | food intake increase | – | – | – | – | – | – | –
B1 | – | rapid decrease in luminescence signal back to basal levels | 3.35 ± 0.7 | significantly shorter than Galanin | weight loss | does not activate Galr1 | suppresses appetite | attenuates LH secretion
